Experimental data from patent publication US20210292393A1 (published 2021).
Numbering of substitutions follows the chain as printed.

Assays:
[1] = target: SARS-CoV-2 spike protein on infectious SARS-CoV-2 virus, Italy-INMI1 isolate (SARS-CoV-2, UniProt P0DTC2 14-1273); assay: cell-based or functional assay
[2] = target: T1, SARS-CoV-2 full length spike protein (wild type) (SARS-CoV-2, UniProt P0DTC2 14-1273)
[3] = target: T1, SARS-CoV-2 full length spike protein …; assay: flow cytometry, CHO cells expressing full-length wild-type SARS-CoV-2 spike
[4] = target: T2, SARS-CoV-2 full length spike protein (wild type), expressed on the surface of transiently transfected CHO … (SARS-CoV-2, UniProt P0DTC2 14-1273)
[5] = target: T2, SARS-CoV-2 full length spike protein …; assay: flow cytometry, CHO cells with full-length WT SARS-CoV-2 spike
[6] = target: 2019 nCoV Spike Protein (RBD, His tag) (SARS-CoV-2, UniProt P0DTC2 329-520); assay: HT-SPR (Carterra LSA), mAb on chip, RBD (His tag) in solution, 25 C
[7] = target: NCP-CoV (2019-nCoV) Spike Protein (S1 Subunit, His Tag) (SARS-CoV-2, UniProt P0DTC2 16-685); assay: HT-SPR (Carterra LSA), mAb on chip, S1 subunit (His tag) in solution, 25 C
[8] = target: T3, SARS-CoV-2 spike protein (nCoV-S Spike Protein Trimer, NIH) (SARS-CoV-2, UniProt P0DTC2 14-1208); assay: HT-SPR (Carterra LSA), mAb on chip, SARS-CoV-2 spike protein titrated, 25 C
T3 construct: also called S protein

[9] = target: T3, SARS-CoV-2 spike protein (nCoV-S Spike …); assay: HT-SPR (Carterra LSA), mAb on chip, SARS-CoV-2 spike protein titrated, 37 C
[10] = target: T4, SARS-CoV-2 full length spike protein (wild-type), conjugated to optically encoded beads (SARS-CoV-2, UniProt P0DTC2 14-1208); assay: multiplexed bead flow cytometry, column D
T4 construct: also called SARS-CoV-2 spike (S) protein; full-length trimeric SARS-CoV-2 spike protein

[11] = target: T5, SARS-CoV-2 full length spike protein (wild type) (SARS-CoV-2, UniProt P0DTC2 14-1208); assay: multiplexed bead assay, flow cytometry; column D
T5 construct: also called SARS-CoV-2 spike; S protein

B1: mAb 555 (antibody, V domains shown)
VH: QVQLVQSGAEVKKPGSSVKVSCKASGGTFSNYAISWVRQAPGQGLEWMGRIIPILGIANYAQKFQGRVTITADKSTSTAYMELSSLRSEDTAVYYCARGYYEARHYYYYYAMDVWGQGTAVTVSS
VL: not shown
Q: With B1 as the binder, how does the “IC50, live virus neutralization of Italy-INMI1 isolate; Lab 2, plaque reduction” value [1] read?
A: 0.05 µg/mL

B2: antibody 296 (antibody, V domains shown)
VH: EVQLVESGGGLVQPGGSLRLSCAGSGFTLSNYWMTWVRQAPGKGLEWVANINQDASRKYYGDSVKGRFSVSRDNAKNSLYLQMNSLTAEDTGFYYCVREELPSTPGSTWGQGTLVTVSS
VL: QSALTQPASVSGSPGQSITISCTGTSSDIGGYNHVSWYQQHPGKAPKLMIYGVSNRPSGVSDRFSGSKSDNTASLTISGLQAEDEADYYCSSPTSRGNKVFGTGTKVTVL
Q: What does the source list for B2?
A: median fluorescence intensity, fold over isotype control [2]: 1.12 fold over isotype; binding result [3]: no binding

B3: antibody 450 (antibody, V domains shown)
VH: EVQLVESGGGLVQPGGSLRLSCAASEFTFSSYWMSWVRQAPGKGLEWVANIKQDGSEKYYVDSVKGRFTISRDNAKNSLYLQMNSLRAEDTAVYYCARVGEYSGYDLFFDYWGQGTLVTVSS
VL: NFMLTQPHSVSESPGKTVTISYTGSSGSIASNYVQWYQQRPGSAPTTVIYEDNQRPSGVPDRFSGSIDSSSNSASLTISGLKTEDEADYYCQSYDSSNQGVFGGGTKLTVL
Q: How did the “median fluorescence intensity, fold over isotype control” value [4] turn out when B3 was run?
A: 0.85 fold over isotype

Q: Does B3 bind [5]?
A: no binding

B4: antibody 292 (antibody, V domains shown)
VH: EVQLVESGGGLIQPGGSLRLSCAASGFTVSSNYMSWVRQAPGKGLEWVSVIYSGGSTYYADSVKGRFTISRDNSKNTLYLQMNSLRAEDTAVYYCARDLQGGGGPWGQGTLVTVSS
VL: AIQMTQSPSSLSASVGDRVTITCRASQGIRNDLGWYQQKPGKAPKLLIYAASSLQSGVPSRFSGSGSGTDFTLTISSLQPEDFATYYCLQDYNYPRTFGQGTKVEIKR
Q: For B4, which Kd [6] is on record?
A: 6.78 nM

Q: And the Kd [7]?
A: 118 nM

Q: What about the Kd [8] of the same binder?
A: 0.0608 nM

Q: What about the Kd [9] of the same binder?
A: 0.0786 nM

B5: antibody 481 (antibody, V domains shown)
VH: B4 VH with Y58F, D98E, L99V, Q100A, G102T, G103Y, G104D, P105Y
VL: DIQMTQSPSSVSASVGDRVTITCRASQGISSWLAWYQQKPGKAPKLLIYAASSLQSGVPSRFSGSGSGTDFTLTISSLQPEDFATYYCQQANSFPGGTFGPGTKVDIKR
Q: B5 was tested. Which Kd [6] did it give?
A: 14.1 nM

Q: What about the Kd [7] of the same binder?
A: 170 nM

Q: And the Kd [8]?
A: 0.118 nM

Q: What about the Kd [9] of the same binder?
A: 0.234 nM

B6: antibody 494 (antibody, V domains shown)
VH: EVQLVESGGGLVQPGGSLRLSCAASGFTVSSNYMSWVRQAPGKGLEWVSVIYSGGSTFYADSVKGRFTISRDNSKNTLYLQMNSLRAEDTAVYYCARDSGDQLLDYWGQGTLVTVSS
VL: B5 VL with M4L, S10F, V11L, W32Y, S53T, D70E, A91L, F94Y, G96P, G97F
Q: What does the source list for B6?
A: Kd [6]: 13.5 nM; Kd [7]: 189 nM; Kd [8]: 0.0835 nM; Kd [9]: 0.225 nM

B7: antibody 506 (antibody, V domains shown)
VH: QITLKESGPTLVKPTQTLTLTCTFSGFSLSTSGVGVGWIRQPPGKALEWLALIYWDDDKRYSPSLKSRLTITKDTSKNQVVLTMTNMDPVDTATYYCAHHSLSSIFDYWGQGTLVTVSS
VL: QSALTQPASVSGSPGQSITISCTGTSSDVGDYNYVSWYQQHPGKAPKLMIYEVSNRPSGVSNRFSGSKSGNTASLTISGLQAEDEADYYCSSYTSSSTVFGGGTKLTVLG
Q: How did the Kd [6] turn out when B7 was run?
A: 14.7 nM

Q: And the Kd [7]?
A: 90.9 nM

Q: And the Kd [8]?
A: 0.0491 nM

Q: And the Kd [9]?
A: 0.0693 nM

B8: antibody 510 (antibody, V domains shown)
VH: QVQLQESGPGLVKPSQTLSLTCTVSGGSISSGSYYWSWIRQPAGKGLEWIGRIYTSGSTNYNPSLKSRVTISVDTSKNQFSLKLSSVTAADTAVYYCAREGQWLYRFDYWGQGTLVTVSS
VL: QSALTQPASVSGSPGQSITISCTGTSSDVGNYDLVSWYQQHPGKAPKLVIYGVTKRPSGVSNRFSGSKSGNTASLTISGLQAEDEADYYCCSYATGDTSVFGTGTKVTVL
Q: Does B8 bind [10]?
A: no binding

B9: antibody 514 (antibody, V domains shown)
VH: EVQLVQSGAEVKKPGATVKISCKVSGYTFTDYYMHWVQQAPGKGLEWMGLVDPEDGETIYAEKFQGRVTITADTSTDTAYMELSSLRSEDTAVYYCATDCKYDILTGHYSAGYYYYGMDVWGQGTTVTVSS
VL: DIQMTQSPSSLSASVGDRVTITCRASQGISNYLAWFQQKPGKAPKSLIYAASSLQSGVPSKFSGSGSGTDFTLTISSLQPEDFATYYCQQYNSYPFTFGGGTKVEIK
Q: Does B9 bind [10]?
A: no binding

B10: antibody 541 (antibody, V domains shown)
VH: QVQLVQSGAEVKKPGASVKVSCKASGYTFTSYYVHWVRQAPGQSLEWMGVISPSTGSTTYAQNFQGRVTMTRDTSTTTVYMELSSLRSEDTAVYYCARDDYYDSTRYFDLWGRGTLVTVSS
VL: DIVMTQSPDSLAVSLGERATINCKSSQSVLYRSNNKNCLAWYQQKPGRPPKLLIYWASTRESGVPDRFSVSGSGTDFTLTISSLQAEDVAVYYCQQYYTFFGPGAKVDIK
Q: Does B10 bind [10]?
A: no binding

B11: antibody 290 (antibody, V domains shown)
VH: QVHLVQSGAEVKKPGASVKVSCAASGYTFNNYGVSWVRQAPGQGLEWMGWISASNGNTKYAQNLQGRVTMTTDTSTSTAYMELRSLRSDDTAVYYCARDLVGPTAPNYYYGMDVWGQGTAVTVSS
VL: QSVLTQPPSVSGAPGQRVTISCTGSSSSIGAGYDVHWYQQLPGTAPKLLIYANSNRPSGVPDRLSGSKSGTSASLAITGLQAEDEADYYCQSYDSSLSGYVFGTGTKVTVL
Q: Does B11 bind [3]?
A: no binding

B12: antibody 332 (antibody, V domains shown)
VH: QVTLRESGPALVKPTQTLTLTCTFSGFSLSTSGMCVSWIRQPPGKALEWLALIDWDDDKYYSTSLKTRLTISKDTSKNQVVLTMTNMDPVDTATYYCARIHDDILTGYHYVDYWGQGTLVTVSS
VL: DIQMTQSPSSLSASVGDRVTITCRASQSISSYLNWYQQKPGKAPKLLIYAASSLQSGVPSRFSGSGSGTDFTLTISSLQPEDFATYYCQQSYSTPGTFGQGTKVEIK
Q: Does B12 bind [11]?
A: no binding

B13: antibody 434 (antibody, V domains shown)
VH: QVQLVQSGAEVKKPGASVQVSCKASGYTFSDYYIFWVRQAPGQGLEWMGCINPKSGGAIYAQRFQGRVTMTRDTSFNTAYMEMNRLGSDDTAVYYCVTRGPPDIAASGFAWHLDVWGQGTTVTVSS
VL: DIVMTQSPLSLPVTPGEPASISCRSSQSLLSSNGYNYLEWYLQKPGQSPQLLMYLGSNRASGVPDRFSGSGSGTDFTLKINRVEAEDVGVYYCMQALQTPLTFGGGTKVEIK
Q: Does B13 bind [5]?
A: no binding

B14: antibody 443 (antibody, V domains shown)
VH: QMRLEESGPGLVKPSETLSLTCTVAGGSITSSDYFWGWLRQSPGKGLEWIASTYHGGSIQYHPALKSRVTISVDASKNQISLRLSSVTAADTAVYYCARDRGDDGPMGTYYFDHWGQGALVTVSS
VL: QSVLTQPPSVSGAPGQSVTISCAGSSSNIGAGHDVHWYQQIPGTAPKLLICGNTNRPSGVPERFSGSRSGTSASLAITGLQAEDEAVYYCQSYDPSHVFFGTGTKLTVL
Q: Does B14 bind [5]?
A: no binding

B15: antibody 333 (antibody, V domains shown)
VH: QVHLVESGGGVVLPGRSLRLSCSASQFIFSNYDMHWVRQSPGMGLEWVAGISSDGSDKYYIDSVRGRFTISRDNAKNTLFLQMNSLTTEDTAVYSCAKGGGKFGQYWGRGTLVTVSS
VL: AIQMTQSPSSLSASVGDRVTITCRASQVIRNDLAWFQQKPGEAPNLLVYSASNLQSGVPSRFSGSGSGTDFTLTISSLQPEDFATYYCLQDYSYPYTFGQGTKLDMK
Q: Does B15 bind [11]?
A: no binding

B16: antibody 474 (antibody, V domains shown)
VH: EVQLVESGGGLVQPGGSLRLSCAASGFTFSSYWMHWVRQAPGKGLVWVSRINSDGSSTSYADSVKGRFTISRDNAKNTLYRQMNSLRAEDTAVYYCALGPLDIVGSYYYYGMDVWGQGTTVTVSS
VL: NFMLTQPHSVSESPGKTVTISCTGSSGSIASNYVQWYQQRPGSAPTTVIYEDNQRPSGVPDRFSGSIDSSSNSASLTISGLKTEDEADYYCQSYDSSNQDVVFGGGTKLTVL
Q: Does B16 bind [5]?
A: no binding

B17: antibody 343 (antibody, V domains shown)
VH: QVQLVESGGDVVQPGTSLRLSCAASGFTFNNYGFHWVRQAPGKGLEWVALISSDGASTHYADSVKGRFTISRDSSVNTLYLQMNSLSLEDTAVYYCATGHCGTTCYYFDYWGQGTLVSVSS
VL: DIQVTQSPSYLSASVGDRVTITCRASQTISTFLQWYQQKVGKAPKLLIYAASTLQSGVPSRFSGSGSGTDFSLTISSLQPEDFATYYCQQSYSAPLSFGGGTKVEIK
Q: Does B17 bind [11]?
A: no binding

B18: antibody 351 (antibody, V domains shown)
VH: HVQLVESGGGVVQPGRSLRLSCAASGFISRNYGMEWVRQAPGQGLEWVAGIWYDGSKKYYADSVKGRFTISRDTSKNTLFLQMDSLRAEDTAVFYCATATKTFCGGDCPPGGMDVWGQGTTVTVST
VL: SYVLTQPPSVSVAPGKTAWITCVGNNIESESVHWYQQRPGQAPVLVIYYDSDRPSGIPERFFGSNSGNTATLTISRVEAGDEADYYCQVWDSNSDLMVFGGGTKLTVL
Q: Does B18 bind [11]?
A: no binding
